From patent publication US20250152742A1, “COMPOSITIONS AND METHODS FOR NEUROLOGICAL DISEASES” (Trames Bio, Inc., priority 2022, published 2025)

Test system: engineered chimeric receptor SEQ ID NO: 33 and its mutants (human α7-nAChR ligand binding domain / human GlyRα1 ion pore domain) in Lenti-X 293T cells
Experiment: YFP fluorescence quenching anion reporter plate reader assay (percent quench, EC50)
Assay type: cell-based
Conditions: for YFP fluorescence quenching using CNL001 (percent quench): receptor named in row; for YFP fluorescence quenching using Facinicline, 30 nM fac: ligand Facinicline 30 nM; for YFP fluorescence quenching using Facinicline, 300 nM fac: ligand Facinicline 300 nM; for YFP fluorescence quenching using Facinicline, 30 uM fac: ligand Facinicline 30 uM; for YFP fluorescence quenching using TC-6987, 1 uM tc6987: ligand TC-6987 1 uM; for YFP fluorescence quenching using TC-6987, 10 uM tc6987: ligand TC-6987 10 uM; for YFP fluorescence quenching using TC-6987, 500 uM tc6987: ligand TC-6987 500 uM; for YFP fluorescence quenching using Varenicline, 3 nM var: ligand Varenicline 3 nM; for YFP fluorescence quenching using Varenicline, 30 nM var: ligand Varenicline 30 nM; for YFP fluorescence quenching using Varenicline, 300 nM var: ligand Varenicline 300 nM; for YFP fluorescence quenching using Varenicline, 500 nM var: ligand Varenicline 500 nM; for YFP fluorescence quenching using Varenicline, 1 uM var: ligand Varenicline 1 uM
Summary of the method: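 Percent quench compares mean YFP signal over the final 10 s with the 15 s baseline before ligand, added in iodide-containing extracellular solution (pH 7.2). Cells were LX293T carrying a YFP anion reporter, transiently transfected with the channel construct; plates were preincubated 30 min at 37 °C.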

[1] = 1 nM CNL001, first column so headed
[2] = 1 nM CNL001, second column so headed
[3] = 3 nM brd (TC-5619/Bradanicline)
[4] = 10 nM CNL001, first column so headed
[5] = 10 nM CNL001, second column so headed
[6] = 30 nM brd (TC-5619/Bradanicline)
[7] = 50 nM CNL001, first column so headed
[8] = 50 nM CNL001, second column so headed
[9] = 100 nM CNL001, first column so headed
[10] = 100 nM CNL001, second column so headed
[11] = 300 nM brd (TC-5619/Bradanicline)
[12] = 1 uM CNL001, first column so headed
[13] = 1 uM CNL001, second column so headed

B1: CODA75: non-responding chimeric engineered receptor used as the negative control (protein)
chain: MRCSPGGVWLALAASLLHVSLQGEFQRKLYKELVKNYNPLERPVANDSQPLTVYFSLSLLQIMDVDEKNQVLTTNIWLQMSWTDHYLQWNVSEYPGVKTVRFPDGQIWKPDILLYNSADERFDATFHTNVLVNSSGHCQYLPPGIFKSSCYIDVRWFPFDVQHCKLKFGSWSYGGWSLDLQMQEADISGYIPNGEWDLVGIPGKRSERFYECCKEPYPDVTFTVTMRRRTGYYLIQMYIPSLLIVILSWISFWINMDAAPARVGLGITTVLTMTTQSSGSEIMPATSDSVPLIAQAIDIWMAVCLLFVFSALLEYAAVNFVSRQHKELLRFRRKRRHHKSPMLNLFQEDEAGEGRFNFSAYGMGPACLQAKDGISVKGANNSNTTNPPPAPSKSPEEMRKLFIQRAKKIDKISRIGFPMAFLIFNMFYWIIYKIVRREDVHNQ
modifications: synthetic sequence of chimeric LGIC
notes: non-responding chimeric engineered receptor used as the negative control
YFP fluorescence quenching using CNL001 (percent quench) [1]: −8.496%
YFP fluorescence quenching using CNL001 (percent quench) [2]: −2.266%
YFP fluorescence quenching using TC-5619/Bradanicline (percent quench) (1 nM brd (TC-5619/Bradanicline)): −13.39%
YFP fluorescence quenching using TC-5619/Bradanicline (percent quench) [3]: −15.78%
YFP fluorescence quenching using CNL001 (percent quench) [4]: 1.816%
YFP fluorescence quenching using CNL001 (percent quench) [5]: −4.649%
YFP fluorescence quenching using TC-5619/Bradanicline (percent quench) (10 nM brd (TC-5619/Bradanicline)): −13.47%
YFP fluorescence quenching using TC-5619/Bradanicline (percent quench) [6]: −16.41%
YFP fluorescence quenching using CNL001 (percent quench) [7]: −5.922%
YFP fluorescence quenching using CNL001 (percent quench) [8]: −5.597%
YFP fluorescence quenching using ABT-126 (percent quench) (50 nM abt (ABT-126)): −17.07%
YFP fluorescence quenching using CNL001 (percent quench) [9]: −8.159%
YFP fluorescence quenching using CNL001 (percent quench) [10]: −5.058%
YFP fluorescence quenching (percent quench) (100 nM CNL002): −7.94%
YFP fluorescence quenching using ABT-126 (percent quench) (100 nM abt (ABT-126)): −16.76%
YFP fluorescence quenching using AZD-0328 (percent quench) (100 nM azd0328): −8.83%
YFP fluorescence quenching using ABT-126 (percent quench) (300 nM abt (ABT-126)): −16.76%
YFP fluorescence quenching using AZD-0328 (percent quench) (300 nM azd0328): −11.15%
YFP fluorescence quenching using TC-5619/Bradanicline (percent quench) [11]: −17.56%
YFP fluorescence quenching using ABT-126 (percent quench) (500 nM abt (ABT-126)): −14.68%
YFP fluorescence quenching using CNL001 (percent quench) [12]: −4.272%
YFP fluorescence quenching using CNL001 (percent quench) [13]: −1.281%
YFP fluorescence quenching (percent quench) (1 uM CNL002): −9.81%
YFP fluorescence quenching using ABT-126 (percent quench) (1 uM abt (ABT-126)): −16%
YFP fluorescence quenching using ABT-126 (percent quench) (3 uM abt (ABT-126)): −14.11%
YFP fluorescence quenching using ABT-126 (percent quench) (10 uM abt (ABT-126)): −13.98%
YFP fluorescence quenching (percent quench) (10 uM ach (acetylcholine)): −12.88%
YFP fluorescence quenching (percent quench) (30 uM CNL002): −15.27%
YFP fluorescence quenching using ABT-126 (percent quench) (30 uM abt (ABT-126)): −21.05%
YFP fluorescence quenching (percent quench) (30 uM ach (acetylcholine)): −18.67%
YFP fluorescence quenching using AZD-0328 (percent quench) (30 uM azd0328): −11.92%
YFP fluorescence quenching using ABT-126 (percent quench) (50 uM abt (ABT-126)): −21.35%
YFP fluorescence quenching (percent quench) (50 uM ach (acetylcholine)): −0.29%
YFP fluorescence quenching using ABT-126 (percent quench) (100 uM abt (ABT-126)): −24.12%
YFP fluorescence quenching (percent quench) (100 uM ach (acetylcholine)): −14.46%
YFP fluorescence quenching (percent quench) (300 uM ach (acetylcholine)): −16.31%
YFP fluorescence quenching (percent quench) (500 uM ach (acetylcholine)): −17.41%
YFP fluorescence quenching (percent quench) (1 mM ach (acetylcholine)): −16.46%
YFP fluorescence quenching (percent quench) (3 mM ach (acetylcholine)): −12.38%
YFP fluorescence quenching (percent quench) (5 mM ach (acetylcholine)): −20.88%
YFP fluorescence quenching (percent quench) (10 mM ach (acetylcholine)): −8.69%
YFP fluorescence quenching using Facinicline, 30 nM fac: −11.68
YFP fluorescence quenching using Facinicline, 100 nM fac (ligand Facinicline 100 nM): 4.35
YFP fluorescence quenching using Facinicline, 300 nM fac: −10.55
YFP fluorescence quenching using Facinicline, 30 uM fac: −5.25
YFP fluorescence quenching using TC-6987, 1 uM tc6987: −11.79
YFP fluorescence quenching using TC-6987, 10 uM tc6987: −14.31
YFP fluorescence quenching using TC-6987, 500 uM tc6987: −19.65
YFP fluorescence quenching using Varenicline, 3 nM var (first column): 4.161
YFP fluorescence quenching using Varenicline, 3 nM var (second column): −6.216
YFP fluorescence quenching using Varenicline, 30 nM var (first column): −5.173
YFP fluorescence quenching using Varenicline, 30 nM var (second column): −6.593
YFP fluorescence quenching using Varenicline, 300 nM var (first column): −5.733
YFP fluorescence quenching using Varenicline, 300 nM var (second column): −7.312
YFP fluorescence quenching using Varenicline, 500 nM var (first column): −10.35
YFP fluorescence quenching using Varenicline, 500 nM var (second column): −7.586
YFP fluorescence quenching using Varenicline, 1 uM var (first column): −5.637
YFP fluorescence quenching using Varenicline, 1 uM var (second column): −3.757

B2: CODA217: engineered receptor: W77F in SEQ ID NO: 33 (protein)
chain: MRCSPGGVWLALAASLLHVSLQGEFQRKLYKELVKNYNPLERPVANDSQPLTVYFSLSLLQIMDVDEKNQVLTTNIFLQMSWTDHYLQWNVSEYPGVKTVRFPDGQIWKPDILLYNSADERFDATFHTNVLVNSSGHCQYLPPGIFKSSCPMDLKNFPMDVQTCKLKFGSWSYGGWSLDLQMQEADISGYIPNGEWDLVGIPGKRSERFYECCKEPYPDVTFTVTMRRRMGYYLIQMYIPSLLIVILSWISFWINMDAAPARVGLGITTVLTMTTQSSGSRASLPKVSYVKAIDIWMAVCLLFVFSALLEYAAVNFVSRQHKELLRFRRKRRHHKSPMLNLFQEDEAGEGRFNFSAYGMGPACLQAKDGISVKGANNSNTTNPPPAPSKSPEEMRKLFIQRAKKIDKISRIGFPMAFLIFNMFYWIIYKIVRREDVHNQ
modifications: synthetic sequence of chimeric LGIC
YFP fluorescence quenching using CNL001 (percent quench) [1]: −22.273%
YFP fluorescence quenching using CNL001 (percent quench) [2]: −19.415%
YFP fluorescence quenching using TC-5619/Bradanicline (percent quench) [3]: −12.1%
YFP fluorescence quenching using CNL001 (percent quench) [4]: −9.563%
YFP fluorescence quenching using CNL001 (percent quench) [5]: 6.398%
YFP fluorescence quenching using TC-5619/Bradanicline (percent quench) [6]: −14.72%
YFP fluorescence quenching using CNL001 (percent quench) [7]: 61.938%
YFP fluorescence quenching using CNL001 (percent quench) [8]: 66.837%
YFP fluorescence quenching using ABT-126 (percent quench) (50 nM abt (ABT-126)): 37.81%
YFP fluorescence quenching using CNL001 (percent quench) [9]: 79.791%
YFP fluorescence quenching using CNL001 (percent quench) [10]: 80.908%
YFP fluorescence quenching (percent quench) (100 nM CNL002): 67.81%
YFP fluorescence quenching using ABT-126 (percent quench) (100 nM abt (ABT-126)): 57.31%
YFP fluorescence quenching using AZD-0328 (percent quench) (100 nM azd0328): −7.57%
YFP fluorescence quenching using ABT-126 (percent quench) (300 nM abt (ABT-126)): 12.61%
YFP fluorescence quenching using AZD-0328 (percent quench) (300 nM azd0328): 7.08%
YFP fluorescence quenching using TC-5619/Bradanicline (percent quench) [11]: −6.3%
YFP fluorescence quenching using CNL001 (percent quench) [12]: 83.444%
YFP fluorescence quenching using CNL001 (percent quench) [13]: 83.905%
YFP fluorescence quenching (percent quench) (1 uM CNL002): 69.42%
YFP fluorescence quenching using ABT-126 (percent quench) (1 uM abt (ABT-126)): 66.05%
YFP fluorescence quenching (percent quench) (10 uM ach (acetylcholine)): −5.86%
YFP fluorescence quenching (percent quench) (30 uM CNL002): 73.64%
YFP fluorescence quenching using AZD-0328 (percent quench) (30 uM azd0328): 81.59%
YFP fluorescence quenching (percent quench) (100 uM ach (acetylcholine)): 70.06%
YFP fluorescence quenching (percent quench) (1 mM ach (acetylcholine)): 68.71%
YFP fluorescence quenching (percent quench) (3 mM ach (acetylcholine)): 73.45%
YFP fluorescence quenching using Facinicline, 30 nM fac: −10.14
YFP fluorescence quenching using Facinicline, 300 nM fac: 68.29
YFP fluorescence quenching using Facinicline, 30 uM fac: 87.35
YFP fluorescence quenching using TC-6987, 1 uM tc6987: −10.35
YFP fluorescence quenching using TC-6987, 10 uM tc6987: −13.93
YFP fluorescence quenching using TC-6987, 500 uM tc6987: −7.54
YFP fluorescence quenching using Varenicline, 3 nM var (first column): 5.662
YFP fluorescence quenching using Varenicline, 3 nM var (second column): 7.57
YFP fluorescence quenching using Varenicline, 30 nM var (first column): 13.968
YFP fluorescence quenching using Varenicline, 30 nM var (second column): 19.079
YFP fluorescence quenching using Varenicline, 300 nM var (first column): 16.183
YFP fluorescence quenching using Varenicline, 300 nM var (second column): 18.025
YFP fluorescence quenching using Varenicline, 500 nM var (first column): 23.366
YFP fluorescence quenching using Varenicline, 500 nM var (second column): 19.206
YFP fluorescence quenching using Varenicline, 1 uM var (first column): 34.69
YFP fluorescence quenching using Varenicline, 1 uM var (second column): 30.504
